# Reference: the Human Domainome abundance scans (Beltran et al. 2025)
# ± gives the uncertainty stated by the source.
# B1: Intersectin-1, residues 909 to 971; numbered along this chain, Q15811 (parent)
# chain: QGEKVEGLQAQALYPWRAKKDNHLNFNKNDVITVLEQQDMWWFGEVQGQKGWFPKSYVKLISG
# Variants of: B1
# Experiment: abundance fitness (aPCA) (normalised: wild type 0, dead -1); higher = more abundant; growth selection in yeast, the domain comes from the species named
# Conditions: Homo sapiens
row,Variant,abundance fitness
1,QGEKVCGLQAQALYPWRAKKDNHLNFNKNDVITVLEQQDMWWFGEVQGQKGWFPKSYVKLISG [E6C],-0.174 ± 0.2
2,QGEKVKGLQAQALYPWRAKKDNHLNFNKNDVITVLEQQDMWWFGEVQGQKGWFPKSYVKLISG [E6K],-0.306 ± 0.27
3,QGEKVSGLQAQALYPWRAKKDNHLNFNKNDVITVLEQQDMWWFGEVQGQKGWFPKSYVKLISG [E6S],-0.16 ± 0.12
4,QGHKVEGLQAQALYPWRAKKDNHLNFNKNDVITVLEQQDMWWFGEVQGQKGWFPKSYVKLISG [E3H],-0.088 ± 0.46
5,QGQKVEGLQAQALYPWRAKKDNHLNFNKNDVITVLEQQDMWWFGEVQGQKGWFPKSYVKLISG [E3Q],0.026 ± 0.24
6,QGRKVEGLQAQALYPWRAKKDNHLNFNKNDVITVLEQQDMWWFGEVQGQKGWFPKSYVKLISG [E3R],-0.074 ± 0.11
7,QGDKVEGLQAQALYPWRAKKDNHLNFNKNDVITVLEQQDMWWFGEVQGQKGWFPKSYVKLISG [E3D],-0.021 ± 0.26
8,QGVKVEGLQAQALYPWRAKKDNHLNFNKNDVITVLEQQDMWWFGEVQGQKGWFPKSYVKLISG [E3V],-0.293 ± 0.15
9,QGAKVEGLQAQALYPWRAKKDNHLNFNKNDVITVLEQQDMWWFGEVQGQKGWFPKSYVKLISG [E3A],-0.293 ± 0.13
10,QGWKVEGLQAQALYPWRAKKDNHLNFNKNDVITVLEQQDMWWFGEVQGQKGWFPKSYVKLISG [E3W],-0.332 ± 0.2
11,QGGKVEGLQAQALYPWRAKKDNHLNFNKNDVITVLEQQDMWWFGEVQGQKGWFPKSYVKLISG [E3G],-0.165 ± 0.1
12,QGCKVEGLQAQALYPWRAKKDNHLNFNKNDVITVLEQQDMWWFGEVQGQKGWFPKSYVKLISG [E3C],-0.153 ± 0.29
13,QGKKVEGLQAQALYPWRAKKDNHLNFNKNDVITVLEQQDMWWFGEVQGQKGWFPKSYVKLISG [E3K],-0.079 ± 0.18
14,QGSKVEGLQAQALYPWRAKKDNHLNFNKNDVITVLEQQDMWWFGEVQGQKGWFPKSYVKLISG [E3S],-0.319 ± 0.25
15,QGIKVEGLQAQALYPWRAKKDNHLNFNKNDVITVLEQQDMWWFGEVQGQKGWFPKSYVKLISG [E3I],0.237 ± 0.37
16,QGFKVEGLQAQALYPWRAKKDNHLNFNKNDVITVLEQQDMWWFGEVQGQKGWFPKSYVKLISG [E3F],-0.169 ± 0.29
17,QGLKVEGLQAQALYPWRAKKDNHLNFNKNDVITVLEQQDMWWFGEVQGQKGWFPKSYVKLISG [E3L],-0.268 ± 0.22
18,QGTKVEGLQAQALYPWRAKKDNHLNFNKNDVITVLEQQDMWWFGEVQGQKGWFPKSYVKLISG [E3T],-0.305 ± 0.26
19,QGNKVEGLQAQALYPWRAKKDNHLNFNKNDVITVLEQQDMWWFGEVQGQKGWFPKSYVKLISG [E3N],0.02 ± 0.17
20,QGMKVEGLQAQALYPWRAKKDNHLNFNKNDVITVLEQQDMWWFGEVQGQKGWFPKSYVKLISG [E3M],-0.312 ± 0.27
21,QGEKCEGLQAQALYPWRAKKDNHLNFNKNDVITVLEQQDMWWFGEVQGQKGWFPKSYVKLISG [V5C],-0.488 ± 0.29
22,QGEKWEGLQAQALYPWRAKKDNHLNFNKNDVITVLEQQDMWWFGEVQGQKGWFPKSYVKLISG [V5W],-0.106 ± 0.22

row,Variant,abundance fitness
1,QGEKGEGLQAQALYPWRAKKDNHLNFNKNDVITVLEQQDMWWFGEVQGQKGWFPKSYVKLISG [V5G],-0.155 ± 0.084
2,QGEKHEGLQAQALYPWRAKKDNHLNFNKNDVITVLEQQDMWWFGEVQGQKGWFPKSYVKLISG [V5H],-0.657 ± 0.31
3,QGEKIEGLQAQALYPWRAKKDNHLNFNKNDVITVLEQQDMWWFGEVQGQKGWFPKSYVKLISG [V5I],-0.151 ± 0.1
4,QGEKAEGLQAQALYPWRAKKDNHLNFNKNDVITVLEQQDMWWFGEVQGQKGWFPKSYVKLISG [V5A],-0.008 ± 0.11
5,QGEKEEGLQAQALYPWRAKKDNHLNFNKNDVITVLEQQDMWWFGEVQGQKGWFPKSYVKLISG [V5E],-0.126 ± 0.17
6,QGEKPEGLQAQALYPWRAKKDNHLNFNKNDVITVLEQQDMWWFGEVQGQKGWFPKSYVKLISG [V5P],-0.07 ± 0.21
7,QGEKDEGLQAQALYPWRAKKDNHLNFNKNDVITVLEQQDMWWFGEVQGQKGWFPKSYVKLISG [V5D],0.126 ± 0.4
8,QGEKLEGLQAQALYPWRAKKDNHLNFNKNDVITVLEQQDMWWFGEVQGQKGWFPKSYVKLISG [V5L],-0.364 ± 0.14
9,QGEKQEGLQAQALYPWRAKKDNHLNFNKNDVITVLEQQDMWWFGEVQGQKGWFPKSYVKLISG [V5Q],-0.029 ± 0.14
10,QGEKSEGLQAQALYPWRAKKDNHLNFNKNDVITVLEQQDMWWFGEVQGQKGWFPKSYVKLISG [V5S],-0.115 ± 0.2
11,QGEKMEGLQAQALYPWRAKKDNHLNFNKNDVITVLEQQDMWWFGEVQGQKGWFPKSYVKLISG [V5M],-0.073 ± 0.49
12,QGEKTEGLQAQALYPWRAKKDNHLNFNKNDVITVLEQQDMWWFGEVQGQKGWFPKSYVKLISG [V5T],-0.237 ± 0.16
13,QSEKVEGLQAQALYPWRAKKDNHLNFNKNDVITVLEQQDMWWFGEVQGQKGWFPKSYVKLISG [G2S],-0.018 ± 0.085
14,QLEKVEGLQAQALYPWRAKKDNHLNFNKNDVITVLEQQDMWWFGEVQGQKGWFPKSYVKLISG [G2L],-0.386 ± 0.18
15,QREKVEGLQAQALYPWRAKKDNHLNFNKNDVITVLEQQDMWWFGEVQGQKGWFPKSYVKLISG [G2R],-0.38 ± 0.14
16,QEEKVEGLQAQALYPWRAKKDNHLNFNKNDVITVLEQQDMWWFGEVQGQKGWFPKSYVKLISG [G2E],-0.001 ± 0.17
17,QNEKVEGLQAQALYPWRAKKDNHLNFNKNDVITVLEQQDMWWFGEVQGQKGWFPKSYVKLISG [G2N],-0.175 ± 0.3
18,QPEKVEGLQAQALYPWRAKKDNHLNFNKNDVITVLEQQDMWWFGEVQGQKGWFPKSYVKLISG [G2P],-0.423 ± 0.19
19,QMEKVEGLQAQALYPWRAKKDNHLNFNKNDVITVLEQQDMWWFGEVQGQKGWFPKSYVKLISG [G2M],0.113 ± 0.29
20,QKEKVEGLQAQALYPWRAKKDNHLNFNKNDVITVLEQQDMWWFGEVQGQKGWFPKSYVKLISG [G2K],0.076 ± 0.28
21,QTEKVEGLQAQALYPWRAKKDNHLNFNKNDVITVLEQQDMWWFGEVQGQKGWFPKSYVKLISG [G2T],-0.051 ± 0.2
